# T1: human IL-18BP (human, UniProt O95998 31-194)
# T1 construct: UniProt printed as 095998; also called hIL-18BP
# T1 sequence: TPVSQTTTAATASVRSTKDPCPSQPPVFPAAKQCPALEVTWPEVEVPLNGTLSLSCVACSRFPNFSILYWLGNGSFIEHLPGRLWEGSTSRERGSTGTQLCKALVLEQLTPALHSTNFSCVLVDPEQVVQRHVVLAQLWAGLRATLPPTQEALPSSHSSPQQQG
# T2: human IL-18BP (interleukin-18 binding protein, isoform A) (human, UniProt O95998 31-194)
# T2 sequence: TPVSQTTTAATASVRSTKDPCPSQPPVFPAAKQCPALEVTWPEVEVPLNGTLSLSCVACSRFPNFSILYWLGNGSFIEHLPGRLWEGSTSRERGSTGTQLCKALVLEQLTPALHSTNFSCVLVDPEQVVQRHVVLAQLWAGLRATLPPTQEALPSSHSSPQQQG
# Molecular target: T1, human IL-18BP
# Experiment: BLI, apparent KD
row,Binder,Kd [nM]
1,"SA301a HC-Y53G (antibody, name in Kabat numbering, V domains shown, IgG1 kappa) VH: QVQLQESGPGLVKPSQTLSLTCTVSGYSITSDYNSHWIRQPPGKGLEWIGYIHGSGSTNYNPSLKSRVTISRDTSKNQFSLKLSSVTAADTAVYYCARNYGSIYVNYFDYWGQGTLVTVSS VL: EIVLTQSPATLSLSPGERATLSCSASSSVSYMYWYQQKPGQAPRPLIYRTSNLASGIPARFSGSGSGTDFTLTISSLEPEDFAVYYCQQYHSYPTFGGGTKVEIK",1.86
2,"SA301a HC-Y53P (antibody, name in Kabat numbering, V domains shown, IgG1 kappa) VH: QVQLQESGPGLVKPSQTLSLTCTVSGYSITSDYNSHWIRQPPGKGLEWIGYIHPSGSTNYNPSLKSRVTISRDTSKNQFSLKLSSVTAADTAVYYCARNYGSIYVNYFDYWGQGTLVTVSS VL: EIVLTQSPATLSLSPGERATLSCSASSSVSYMYWYQQKPGQAPRPLIYRTSNLASGIPARFSGSGSGTDFTLTISSLEPEDFAVYYCQQYHSYPTFGGGTKVEIK",0.38
3,"SA301a HC-Y53T (antibody, name in Kabat numbering, V domains shown, IgG1 kappa) VH: QVQLQESGPGLVKPSQTLSLTCTVSGYSITSDYNSHWIRQPPGKGLEWIGYIHTSGSTNYNPSLKSRVTISRDTSKNQFSLKLSSVTAADTAVYYCARNYGSIYVNYFDYWGQGTLVTVSS VL: EIVLTQSPATLSLSPGERATLSCSASSSVSYMYWYQQKPGQAPRPLIYRTSNLASGIPARFSGSGSGTDFTLTISSLEPEDFAVYYCQQYHSYPTFGGGTKVEIK",1.95
4,"SA301a HC-Y53A (antibody, name in Kabat numbering, V domains shown, IgG1 kappa) VH: QVQLQESGPGLVKPSQTLSLTCTVSGYSITSDYNSHWIRQPPGKGLEWIGYIHASGSTNYNPSLKSRVTISRDTSKNQFSLKLSSVTAADTAVYYCARNYGSIYVNYFDYWGQGTLVTVSS VL: EIVLTQSPATLSLSPGERATLSCSASSSVSYMYWYQQKPGQAPRPLIYRTSNLASGIPARFSGSGSGTDFTLTISSLEPEDFAVYYCQQYHSYPTFGGGTKVEIK",2.6
5,"SA301a HC-S54V (antibody, name in Kabat numbering, V domains shown, IgG1 kappa) VH: QVQLQESGPGLVKPSQTLSLTCTVSGYSITSDYNSHWIRQPPGKGLEWIGYIHYVGSTNYNPSLKSRVTISRDTSKNQFSLKLSSVTAADTAVYYCARNYGSIYVNYFDYWGQGTLVTVSS VL: EIVLTQSPATLSLSPGERATLSCSASSSVSYMYWYQQKPGQAPRPLIYRTSNLASGIPARFSGSGSGTDFTLTISSLEPEDFAVYYCQQYHSYPTFGGGTKVEIK",0.55
6,"SA301a HC-Y53L (antibody, name in Kabat numbering, V domains shown, IgG1 kappa) VH: QVQLQESGPGLVKPSQTLSLTCTVSGYSITSDYNSHWIRQPPGKGLEWIGYIHLSGSTNYNPSLKSRVTISRDTSKNQFSLKLSSVTAADTAVYYCARNYGSIYVNYFDYWGQGTLVTVSS VL: EIVLTQSPATLSLSPGERATLSCSASSSVSYMYWYQQKPGQAPRPLIYRTSNLASGIPARFSGSGSGTDFTLTISSLEPEDFAVYYCQQYHSYPTFGGGTKVEIK",2.42
7,"SA301a HC-S54Y (antibody, name in Kabat numbering, V domains shown, IgG1 kappa) VH: QVQLQESGPGLVKPSQTLSLTCTVSGYSITSDYNSHWIRQPPGKGLEWIGYIHYYGSTNYNPSLKSRVTISRDTSKNQFSLKLSSVTAADTAVYYCARNYGSIYVNYFDYWGQGTLVTVSS VL: EIVLTQSPATLSLSPGERATLSCSASSSVSYMYWYQQKPGQAPRPLIYRTSNLASGIPARFSGSGSGTDFTLTISSLEPEDFAVYYCQQYHSYPTFGGGTKVEIK",4.66
8,"SA301a HC-Y53I (antibody, name in Kabat numbering, V domains shown, IgG1 kappa) VH: QVQLQESGPGLVKPSQTLSLTCTVSGYSITSDYNSHWIRQPPGKGLEWIGYIHISGSTNYNPSLKSRVTISRDTSKNQFSLKLSSVTAADTAVYYCARNYGSIYVNYFDYWGQGTLVTVSS VL: EIVLTQSPATLSLSPGERATLSCSASSSVSYMYWYQQKPGQAPRPLIYRTSNLASGIPARFSGSGSGTDFTLTISSLEPEDFAVYYCQQYHSYPTFGGGTKVEIK",1.87
9,"SA301a HC-Y53M (antibody, name in Kabat numbering, V domains shown, IgG1 kappa) VH: QVQLQESGPGLVKPSQTLSLTCTVSGYSITSDYNSHWIRQPPGKGLEWIGYIHMSGSTNYNPSLKSRVTISRDTSKNQFSLKLSSVTAADTAVYYCARNYGSIYVNYFDYWGQGTLVTVSS VL: EIVLTQSPATLSLSPGERATLSCSASSSVSYMYWYQQKPGQAPRPLIYRTSNLASGIPARFSGSGSGTDFTLTISSLEPEDFAVYYCQQYHSYPTFGGGTKVEIK",0.4
10,"SA301a HC-Y53F (antibody, name in Kabat numbering, V domains shown, IgG1 kappa) VH: QVQLQESGPGLVKPSQTLSLTCTVSGYSITSDYNSHWIRQPPGKGLEWIGYIHFSGSTNYNPSLKSRVTISRDTSKNQFSLKLSSVTAADTAVYYCARNYGSIYVNYFDYWGQGTLVTVSS VL: EIVLTQSPATLSLSPGERATLSCSASSSVSYMYWYQQKPGQAPRPLIYRTSNLASGIPARFSGSGSGTDFTLTISSLEPEDFAVYYCQQYHSYPTFGGGTKVEIK",0.39
11,"SA301a HC-Y53V (antibody, name in Kabat numbering, V domains shown, IgG1 kappa) VH: QVQLQESGPGLVKPSQTLSLTCTVSGYSITSDYNSHWIRQPPGKGLEWIGYIHVSGSTNYNPSLKSRVTISRDTSKNQFSLKLSSVTAADTAVYYCARNYGSIYVNYFDYWGQGTLVTVSS VL: EIVLTQSPATLSLSPGERATLSCSASSSVSYMYWYQQKPGQAPRPLIYRTSNLASGIPARFSGSGSGTDFTLTISSLEPEDFAVYYCQQYHSYPTFGGGTKVEIK",2.16
12,"SA301a HC-Y53E (antibody, name in Kabat numbering, V domains shown, IgG1 kappa) VH: QVQLQESGPGLVKPSQTLSLTCTVSGYSITSDYNSHWIRQPPGKGLEWIGYIHESGSTNYNPSLKSRVTISRDTSKNQFSLKLSSVTAADTAVYYCARNYGSIYVNYFDYWGQGTLVTVSS VL: EIVLTQSPATLSLSPGERATLSCSASSSVSYMYWYQQKPGQAPRPLIYRTSNLASGIPARFSGSGSGTDFTLTISSLEPEDFAVYYCQQYHSYPTFGGGTKVEIK",5.06
13,"SA301a HC-Y53R (antibody, name in Kabat numbering, V domains shown, IgG1 kappa) VH: QVQLQESGPGLVKPSQTLSLTCTVSGYSITSDYNSHWIRQPPGKGLEWIGYIHRSGSTNYNPSLKSRVTISRDTSKNQFSLKLSSVTAADTAVYYCARNYGSIYVNYFDYWGQGTLVTVSS VL: EIVLTQSPATLSLSPGERATLSCSASSSVSYMYWYQQKPGQAPRPLIYRTSNLASGIPARFSGSGSGTDFTLTISSLEPEDFAVYYCQQYHSYPTFGGGTKVEIK",7.08
14,"SA301a HC-Y53H (antibody, name in Kabat numbering, V domains shown, IgG1 kappa) VH: QVQLQESGPGLVKPSQTLSLTCTVSGYSITSDYNSHWIRQPPGKGLEWIGYIHHSGSTNYNPSLKSRVTISRDTSKNQFSLKLSSVTAADTAVYYCARNYGSIYVNYFDYWGQGTLVTVSS VL: EIVLTQSPATLSLSPGERATLSCSASSSVSYMYWYQQKPGQAPRPLIYRTSNLASGIPARFSGSGSGTDFTLTISSLEPEDFAVYYCQQYHSYPTFGGGTKVEIK",2.41
15,"SA301a HC-Y53Q (antibody, name in Kabat numbering, V domains shown, IgG1 kappa) VH: QVQLQESGPGLVKPSQTLSLTCTVSGYSITSDYNSHWIRQPPGKGLEWIGYIHQSGSTNYNPSLKSRVTISRDTSKNQFSLKLSSVTAADTAVYYCARNYGSIYVNYFDYWGQGTLVTVSS VL: EIVLTQSPATLSLSPGERATLSCSASSSVSYMYWYQQKPGQAPRPLIYRTSNLASGIPARFSGSGSGTDFTLTISSLEPEDFAVYYCQQYHSYPTFGGGTKVEIK",1.81
16,"SA301a HC-Y53D (antibody, name in Kabat numbering, V domains shown, IgG1 kappa) VH: QVQLQESGPGLVKPSQTLSLTCTVSGYSITSDYNSHWIRQPPGKGLEWIGYIHDSGSTNYNPSLKSRVTISRDTSKNQFSLKLSSVTAADTAVYYCARNYGSIYVNYFDYWGQGTLVTVSS VL: EIVLTQSPATLSLSPGERATLSCSASSSVSYMYWYQQKPGQAPRPLIYRTSNLASGIPARFSGSGSGTDFTLTISSLEPEDFAVYYCQQYHSYPTFGGGTKVEIK",3.2
17,"SA301a HC-Y53S (antibody, name in Kabat numbering, V domains shown, IgG1 kappa) VH: QVQLQESGPGLVKPSQTLSLTCTVSGYSITSDYNSHWIRQPPGKGLEWIGYIHSSGSTNYNPSLKSRVTISRDTSKNQFSLKLSSVTAADTAVYYCARNYGSIYVNYFDYWGQGTLVTVSS VL: EIVLTQSPATLSLSPGERATLSCSASSSVSYMYWYQQKPGQAPRPLIYRTSNLASGIPARFSGSGSGTDFTLTISSLEPEDFAVYYCQQYHSYPTFGGGTKVEIK",2.64
18,"SA301a HC-S54T (antibody, name in Kabat numbering, V domains shown, IgG1 kappa) VH: QVQLQESGPGLVKPSQTLSLTCTVSGYSITSDYNSHWIRQPPGKGLEWIGYIHYTGSTNYNPSLKSRVTISRDTSKNQFSLKLSSVTAADTAVYYCARNYGSIYVNYFDYWGQGTLVTVSS VL: EIVLTQSPATLSLSPGERATLSCSASSSVSYMYWYQQKPGQAPRPLIYRTSNLASGIPARFSGSGSGTDFTLTISSLEPEDFAVYYCQQYHSYPTFGGGTKVEIK",1.14
19,"SA301a HC-Y53K (antibody, name in Kabat numbering, V domains shown, IgG1 kappa) VH: QVQLQESGPGLVKPSQTLSLTCTVSGYSITSDYNSHWIRQPPGKGLEWIGYIHKSGSTNYNPSLKSRVTISRDTSKNQFSLKLSSVTAADTAVYYCARNYGSIYVNYFDYWGQGTLVTVSS VL: EIVLTQSPATLSLSPGERATLSCSASSSVSYMYWYQQKPGQAPRPLIYRTSNLASGIPARFSGSGSGTDFTLTISSLEPEDFAVYYCQQYHSYPTFGGGTKVEIK",3.16

# Molecular target: T2, human IL-18BP (interleukin-18 binding …)
# Experiment: cell-based or functional assay
Binder,"EC50 in PBMC Assay 1 (endogenous IL-18BP), IFNγ [nM]","EC50 in PBMC Assay 2 (precomplexed IL-18BP), IFNγ [nM]"
"SA304a (antibody, human IgG1, V domains shown) VH: QVQLQESGPGLVKPSQTLSLTCTVSGYSITSDYNAHWIRQPPGKGLEWIGYIHYSGSTNYNPSLKSRVTISRDTSKNQFSLKLSSVTAADTAVYYCARNYASIYVNYFDYWGQGTLVTVSS VL: EIVLTQSPATLSLSPGERATLSCSASSSVSYMYWYQQKPGQAPRPLIYRTSNLASGIPARFSGSGSGTDFTLTISSLEPEDFAVYYCQQYHSYPTFGGGTKVEIK",3.1,3
"SA305a (antibody, human IgG1, V domains shown) VH: QVQLQESGPGLVKPSQTLSLTCTVSGYSITSDYNAHWIRQPPGKGLEWIGYIHYSGSTNYNPSLKSRVTISRDTSKNQFSLKLSSVTAADTAVYYCARNFASIYVNYFDYWGQGTLVTVSS VL: EIVLTQSPATLSLSPGERATLSCSASSSVSYMYWYQQKPGQAPRPLIYRTSNLASGIPARFSGSGSGTDFTLTISSLEPEDFAVYYCQQYHSYPTFGGGTKVEIK",4.4,0.79

# — patent US20250368745A1 (published 2025)
